B1: Notch homolog 2 N-terminal-like protein A (Homo sapiens), Q7Z3S9 (parent)
chain: MCVTYHNGTGYCKCPEGFLGEYCQHRDPCEKNRCQNGGTCVAQAMLGKATCRCASGFTGEDCQYSTSHPCFVSRPCLNGGTCHMLSRDTYECTCQVGFTGKECQWTDACLSHPCANGSTCTTVANQFSCKCLTGFTGQKCETDVNECDIPGHCQHGGTCLNLPGSYQCQCLQGFTGQYCDSLYVPCAPSPCVNGGTCRQTGDFTFECNCLPETVRRGTELWERDREVWNGKEHDEN
partner: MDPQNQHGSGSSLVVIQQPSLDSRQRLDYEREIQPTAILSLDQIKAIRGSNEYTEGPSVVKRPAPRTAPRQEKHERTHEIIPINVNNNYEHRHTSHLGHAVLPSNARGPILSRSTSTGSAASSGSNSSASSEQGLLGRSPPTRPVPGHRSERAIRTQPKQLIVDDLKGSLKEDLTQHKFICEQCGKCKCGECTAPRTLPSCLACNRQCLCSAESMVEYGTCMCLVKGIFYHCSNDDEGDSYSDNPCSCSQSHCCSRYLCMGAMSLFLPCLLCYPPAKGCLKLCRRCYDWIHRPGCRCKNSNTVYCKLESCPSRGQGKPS
B2: Protein BANP (Homo sapiens), Q8N9N5 (parent)
chain: MMSEHDLADVVQIAVEDLSPDHPVVLENHVVTDEDEPALKRQRLEINCQDPSIKTICLRLDSIEAKLQALEATCKSLEEKLDLVTNKQHSPIQVPMVAGSPLGATQTCNKVRCVVPQTTVILNNDRQNAIVAKMEDPLSNRAPDSLENVISNAVPGRRQNTIVVKVPGQEDSHHEDGESGSEASDSVSSCGQAGSQSIGSNVTLITLNSEEDYPNGTWLGDENNPEMRVRCAIIPSDMLHISTNCRTAEKMALTLLDYLFHREVQAVSNLSGQGKHGKKQLDPLTIYGIRCHLFYKFGITESDWYRIKQSIDSKCRTAWRRKQRGQSLAVKSFSRRTPNSSSYCPSEPMMSTPPPASELPQPQPQPQALHYALANAQQVQIHQIGEDGQVQVGHLHIAQVPQGEQVQITQDSEGNLQIHHVGQDGQLLEATRIPCLLAPSVFKASSGQVLQGAQLIAVASSDPAAAGVDGSPLQGSDIQVQYVQLAPVSDHTAGAQTAEALQPTLQPEMQLEHGAIQIQ
partner: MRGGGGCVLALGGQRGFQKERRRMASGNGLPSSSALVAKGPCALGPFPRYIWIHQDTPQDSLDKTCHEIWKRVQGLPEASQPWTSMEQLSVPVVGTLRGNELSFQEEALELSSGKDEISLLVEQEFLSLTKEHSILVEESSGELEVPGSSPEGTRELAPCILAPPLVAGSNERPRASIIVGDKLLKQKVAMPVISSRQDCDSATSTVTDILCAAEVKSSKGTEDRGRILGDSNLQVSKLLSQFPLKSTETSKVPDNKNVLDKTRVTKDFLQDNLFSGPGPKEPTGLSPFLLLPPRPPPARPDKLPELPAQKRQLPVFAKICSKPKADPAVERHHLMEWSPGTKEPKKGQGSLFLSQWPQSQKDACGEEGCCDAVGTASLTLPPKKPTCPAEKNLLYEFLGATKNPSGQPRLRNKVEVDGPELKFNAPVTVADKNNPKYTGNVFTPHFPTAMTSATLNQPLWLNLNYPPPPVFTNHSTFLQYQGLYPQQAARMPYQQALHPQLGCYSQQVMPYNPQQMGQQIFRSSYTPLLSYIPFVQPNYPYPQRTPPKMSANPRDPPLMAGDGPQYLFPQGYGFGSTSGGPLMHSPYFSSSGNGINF
B3: Ubiquitin thioesterase OTUB2 (Homo sapiens), Q96DC9 (parent)
chain: MSETSFNLISEKCDILSILRDHPENRIYRRKIEELSKRFTAIRKTKGDGNCFYRALGYSYLESLLGKSREIFKFKERVLQTPNDLLAAGFEEHKFRNFFNAFYSVVELVEKDGSVSSLLKVFNDQSASDHIVQFLRLLTSAFIRNRADFFRHFIDEEMDIKDFCTHEVEPMATECDHIQITALSQALSIALQVEYVDEMDTALNHHVFPEAATPSVYLLYKTSHYNILYAADKH
partner: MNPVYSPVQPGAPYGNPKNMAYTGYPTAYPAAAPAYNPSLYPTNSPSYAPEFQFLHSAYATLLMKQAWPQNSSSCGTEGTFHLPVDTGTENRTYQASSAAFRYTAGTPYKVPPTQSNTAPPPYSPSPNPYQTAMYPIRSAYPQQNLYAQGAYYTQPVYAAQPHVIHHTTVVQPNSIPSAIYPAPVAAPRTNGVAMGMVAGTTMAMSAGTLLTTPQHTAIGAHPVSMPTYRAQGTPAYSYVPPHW
B4: Inactive peptidyl-prolyl cis-trans isomerase FKBP6 (Homo sapiens), O75344 (parent)
chain: MGGSALNQGVLEGDDAPGQSLYERLSQRMLDISGDRGVLKDVIREGAGDLVAPDASVLVKYSGYLEHMDRPFDSNYFRKTPRLMKLGEDITLWGMELGLLSMRRGELARFLFKPNYAYGTLGCPPLIPPNTTVLFEIELLDFLDCAESDKFCALSAEQQDQFPLQKVLKVAATEREFGNYLFRQNRFYDAKVRYKRALLLLRRRSAPPEEQHLVEAAKLPVLLNLSFTYLKLDRPTIALCYGEQALIIDQKNAKALFRCGQACLLLTEYQKARDFLVRAQKEQPFNHDINNELKKLASCYRDYVDKEKEMWHRMFAPCGDGSTAGES
partner: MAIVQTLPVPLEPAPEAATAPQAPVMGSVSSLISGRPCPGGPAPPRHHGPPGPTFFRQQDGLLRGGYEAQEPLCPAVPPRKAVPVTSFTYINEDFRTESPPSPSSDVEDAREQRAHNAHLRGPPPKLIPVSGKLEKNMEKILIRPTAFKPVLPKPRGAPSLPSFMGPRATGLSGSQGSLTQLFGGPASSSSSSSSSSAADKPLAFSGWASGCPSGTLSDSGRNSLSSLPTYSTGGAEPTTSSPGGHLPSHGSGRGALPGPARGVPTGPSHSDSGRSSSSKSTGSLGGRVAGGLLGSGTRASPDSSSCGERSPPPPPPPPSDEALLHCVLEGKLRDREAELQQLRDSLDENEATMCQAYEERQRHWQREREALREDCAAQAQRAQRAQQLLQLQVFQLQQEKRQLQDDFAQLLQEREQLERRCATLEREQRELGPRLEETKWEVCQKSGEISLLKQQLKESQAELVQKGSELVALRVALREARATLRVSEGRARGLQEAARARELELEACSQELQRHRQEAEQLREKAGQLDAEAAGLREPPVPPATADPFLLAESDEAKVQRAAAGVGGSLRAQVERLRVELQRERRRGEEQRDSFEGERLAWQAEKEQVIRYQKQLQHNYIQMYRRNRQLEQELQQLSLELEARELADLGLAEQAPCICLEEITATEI
B5: Dynein axonemal light chain 4 (Homo sapiens), O96015 (parent)
chain: MGETEGKKDEADYKRLQTFPLVRHSDMPEEMRVETMELCVTACEKFSNNNESAAKMIKETMDKKFGSSWHVVIGEGFGFEITHEVKNLLYLYFGGTLAVCVWKCS
B6: Zinc finger protein Aiolos (Homo sapiens), Q9UKT9 (parent)
chain: MEDIQTNAELKSTQEQSVPAESAAVLNDYSLTKSHEMENVDSGEGPANEDEDIGDDSMKVKDEYSERDENVLKSEPMGNAEEPEIPYSYSREYNEYENIKLERHVVSFDSSRPTSGKMNCDVCGLSCISFNVLMVHKRSHTGERPFQCNQCGASFTQKGNLLRHIKLHTGEKPFKCHLCNYACQRRDALTGHLRTHSVEKPYKCEFCGRSYKQRSSLEEHKERCRTFLQSTDPGDTASAEARHIKAEMGSERALVLDRLASNVAKRKSSMPQKFIGEKRHCFDVNYNSSYMYEKESELIQTRMMDQAINNAISYLGAEALRPLVQTPPAPTSEMVPVISSMYPIALTRAEMSNGAPQELEKKSIHLPEKSVPSERGLSPNNSGHDSTDTDSNHEERQNHIYQQNHMVLSRARNGMPLLKEVPRSYELLKPPPICPRDSVKVINKEGEVMDVYRCDHCRVLFLDYVMFTIHMGCHGFRDPFECNMCGYRSHDRYEFSSHIARGEHRALLK
partner: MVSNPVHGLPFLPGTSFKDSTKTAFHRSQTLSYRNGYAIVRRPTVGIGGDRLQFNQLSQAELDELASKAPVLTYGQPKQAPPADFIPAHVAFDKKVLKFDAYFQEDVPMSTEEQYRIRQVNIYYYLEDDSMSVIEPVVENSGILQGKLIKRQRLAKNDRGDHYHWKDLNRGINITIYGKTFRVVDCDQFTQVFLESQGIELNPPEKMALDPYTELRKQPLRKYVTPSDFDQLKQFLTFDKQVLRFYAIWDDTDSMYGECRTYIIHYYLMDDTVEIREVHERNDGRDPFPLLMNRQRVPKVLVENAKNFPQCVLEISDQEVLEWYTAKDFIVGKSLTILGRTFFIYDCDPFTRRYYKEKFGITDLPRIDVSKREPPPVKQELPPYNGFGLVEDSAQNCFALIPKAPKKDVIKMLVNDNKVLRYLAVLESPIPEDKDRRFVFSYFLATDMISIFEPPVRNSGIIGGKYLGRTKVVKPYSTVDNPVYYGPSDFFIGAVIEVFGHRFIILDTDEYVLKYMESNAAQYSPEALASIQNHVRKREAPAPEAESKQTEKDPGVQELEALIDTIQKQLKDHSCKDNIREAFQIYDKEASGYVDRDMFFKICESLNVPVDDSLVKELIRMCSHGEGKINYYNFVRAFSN
B7: Break repair meiotic recombinase recruitment factor 1 (Homo sapiens), Q0VDD7 (parent)
chain: MTKRKKLRTSGEGLCPPKPLKNPRLGDFYGDPQSSMLGCLHHPEEPEGKLGPVPSTQQHGEEPGKAVSSSPDEETGSPCRLLRQPEKEPAPLPPSQNSFGRFVPQFAKSRKTVTRKEEMKDEDRGSGAFSLETIAESSAQSPGCQLLVETLGVPLQEATELGDPTQADSARPEQSSQSPVQAVPGSGDSQPDDPPDRGTGLSASQRASQDHLSEQGADDSKPETDRVPGDGGQKEHLPSIDSEGEKPDRGAPQEGGAQRTAGAGLPGGPQEEGDGVPCTPASAPTSGPAPGLGPASWCLEPGSVAQGSPDPQQTPSRMGREGEGTHSSLGCSSLGMVVIADLSTDPTELEERALEVAGPDGQASAISPASPRRKAADGGHRRALPGCTSLTGETTGESGEAGQDGKPPGDVLVGPTASLALAPGSGESMMGAGDSGHASPDTGPCVNQKQEPGPAQEEAELGGQNLERDLEGFRVSPQASVVLEHREIADDPLQEPGAQQGIPDTTSELAGQRDHLPHSADQGTWADSLAVELDFLLDSQIQDALDASDFEAPPEQLFPSGNKPGPCWPGPSSHANGDPVAVAKAQPRTFVGIQASEASRMEDATNVVRGLIVELSNLNRLIMGTHRDLEAFKRLNYRKTKLGGKAPLPYPSKGPGNIPRGDPPWREL
partner: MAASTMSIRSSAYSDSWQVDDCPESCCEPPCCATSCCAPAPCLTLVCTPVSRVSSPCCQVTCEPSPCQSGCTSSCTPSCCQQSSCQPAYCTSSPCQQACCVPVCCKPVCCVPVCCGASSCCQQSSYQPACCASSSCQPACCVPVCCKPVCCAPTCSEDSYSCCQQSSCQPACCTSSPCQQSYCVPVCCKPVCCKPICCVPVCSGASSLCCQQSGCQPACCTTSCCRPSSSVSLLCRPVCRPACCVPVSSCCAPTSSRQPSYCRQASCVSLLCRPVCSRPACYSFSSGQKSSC

Variants of: B1
Details: with spy1_human SPRY1, O43609

Variant	effect of a mutation on the interaction
A115T	with no effect

Variants of: B2
Details: with ca094_human C1orf94, Q6P1W5

Variant	effect of a mutation on the interaction
P348S	with no effect

Variants of: B3
Details: with FAM168A

Variant	effect of a mutation on the interaction
R146P	disrupting interaction strength
V78I	with no effect

Variants of: B4
Details: with lzts2_human LZTS2, Q9BRK4

Variant	effect of a mutation on the interaction
H287N	with no effect
R175Q	with no effect

Variants of: B5
Details: with dyl2_human DYNLL2, Q96FJ2
dyl2_human DYNLL2, Q96FJ2, sequence (Q96FJ2 whole entry): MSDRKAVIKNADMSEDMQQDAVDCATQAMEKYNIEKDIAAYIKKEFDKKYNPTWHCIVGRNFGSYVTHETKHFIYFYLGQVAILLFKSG

Variant	effect of a mutation on the interaction
R32C	disrupting interaction strength

Variants of: B6
Details: with efhc1_human EFHC1, Q5JVL4

Variant	effect of a mutation on the interaction
N119D	with no effect
A24V	with no effect

Variants of: B7
Details: with kr109_human KRTAP10-9, P60411

Variant	effect of a mutation on the interaction
N576S	with no effect
G267R	with no effect
